Holding throughout (format): biochemical, Quillaja saponaria
Assay [1] in a line: Experiment 6-1: screening of rhamnosidases for derhamnosylation of saponins in treated bark extract (2%), desglucosyl-QS-17 2134 to QS-21 1988 (PAR %). The conditions noted are these: TBE 2%, pH 7.5, 30 degC, 18 h; TIC peak area ratio percent, LCMS/MS; negative controls 2.719, 2.158.
Assay [2] in a line: Experiment 6-1: screening of rhamnosidases for derhamnosylation of saponins in treated bark extract (2%), QS-17 2310 to QS-18 2164 (PAR %). The conditions noted are these: TBE 2%, pH 7.5, 30 degC, 18 h; TIC peak area ratio percent, LCMS/MS; negative controls 3.061, 2.429.
A short description of assay [3]: Experiment 6-1: specificity of rhamnosidases towards other rhamnose residues (C3 saccharide rhamnose, C28 saccharide rhamnose). The conditions noted are these: TBE 2%, pH 7.5, 30 degC, 18 h; LCMS/MS; negative controls 0.18, 0.17.
A short description of assay [4]: Experiment 6-1: screening of rhamnosidases for derhamnosylation of saponins in treated bark extract (2%), QS-17 2296 to QS-18 2150 (PAR %). The conditions noted are these: TBE 2%, pH 7.5, 30 degC, 18 h; TIC peak area ratio percent of rhamnosylated starting saponin to derhamnosylated product, LCMS/MS; negative controls 4.876, 5.225.

Here are results for 5 molecules from patent US20240026407A1, “MODIFICATION OF SAPONINS” (GLAXOSMITHKLINE BIOLOGICALS SA, priority 2020, published 2024).

B1: 1031 (protein, listed as Pedobacter heparinus)
chain: MTNFSCIAKRITSFLMLFLSCSPFITAQVKSGTIVYPRGSFDADWISCPDVNLKSYGVFHMRKVFELTSRPKQFVVHVSGDQRYRLFANGTPVCFGPARGDLRNWNYETIDIAPYLKTGKNVLAVQLWNMGSGAPAAQLTYQTGFILQGNSNAEQMVNTNNSWRIIQNKGYFPEPFPPSRLASYIVGSCDSVVFKNYPFGWQNINYDDKSWLSPVSETKPRYYTEKRSLIPRSIPMMEEKIEPITGIVRILGTDTSAILNSFNKNGSITIPANTKATILFDRKTLTTAYPEITFSKGSNGKVKITYAESLFNSENLKGNRNEIKNKTIKGYYDVFLPDGGTAHTFRPLWTRTFRYIQFDITTGSEPMVIDKMQSVFTAYPFKEHAFFTSNDSTLHEIWDVSWRTARLCANETYMDCPYYEQLQYVGDTRIQALISLYVSGDDRLMRNAIEQFHQSQIPDGLTMDAYPAGGGKFIPPFSLFWIAMLHDFYWYRDDEKFIEKYLIPMEAILKWFEYRLDNNSGMLGKTGYWNFVDWSFSPKGIPSGGLEGNSSILSLQYVYALEQAAEIFAHAKQQQKADYYHNLGQKIKRAVYARCYDINNRLLADSPERKAFSQHANIWSIITDCIPFKDQEATMERIMNDSTLTATSLYYRFYYTKAMKKAGLGSLYLSSLRPWKQMLDLGFSTFPETLAPNVRSDCHAWSASPCYDFLATVCGIEPGTPGFATVRISPNLGNLKAVSGELPHPLGPIKVSYKKIKEGSYSAHIELPANLNGIFISKDQKVILTGGKQEITFKYE
Turning to B1, in assay [1], the “Peak75 (PAR %)” value is reported as 2.367%. The “Peak57 (PAR %)” value in assay [2] worked out at 3.096%. In assay [3], the “ratio PP/QS-21” value is 0.17. For the same molecule, the “QS-17 (PAR %)” value in assay [4] amounted to 5.218%.

B2: 1049 (protein, listed as Chitinophaga pinensis)
chain: MKQCMGIWLLFLSLQTWGQQLQVVHLRTDNKTNPLGCQLSPRLSWQLSASYNNCVQQAYQLQFSDDSTTLNSKKHTGKHVESADPFLTLPAAFAGITLLPAHTYYWRVQVWDKAGRPSGWSEVASFINALNGPADWKGAKWIGYEDVVDSMRVVPGVHNGTDKFYQKHKARQRTIVPLFRKAFSVQGKVKSALLYISGLGQYEASLNGVRLGDNFLAPGWTHYDETALYNTYDLTNVLQAGENALGVIVGNGFFNVNKERYRKLSVVYGMPRMICRLLITYENGKTTNIVSGTDWRTSASPITFTSIYGGEDYDAGKEQSGWDQPGFNDTEWKPAIVVKATEKRLLPEEDYPVKVMEVLPVRRITQPQPAVYMYDFGQNASGIIGLKIKGKKGQTVKLIPAELTNDKQLANQKATGSPYYFSYTLKGDGIETWQPRFSYYGFRYVQVEGAAPDTAVHTGDVPEIISLELLHTRNAAPVNGTFSCSNDLFNRIHTLILWAIKSNMQSVLTDCPHREKLSWLEQDYLMGNAIQYSYDIDLLYRKLIRDMKEAQTGEGLVPDIAPEFVFFDDHGFGFRDSPEWGSAGVIVPWLHYRWYGDKTVISDAYPMVKKYVAYLGAKAQHNILSYGLGDWFDNGPQRPGVAQLTPKGVTATAIYYYDLVLAGNMADLLGKTAEAKAFRVQADKVKATFNGEYFHTGTKVYSTGSQTAMAMPLCVGLVEEQYRQAVFSNMVDSIRQQRNQLTAGDIGFHFLVQALQEGGASDLLYEMNNRSDVPGYGFQLAKGATTLTESWAALEQVSNNHLMLGHLLEWFYTGLGGITQQAGSIGYKQLQICPEVVGDITWVKTSYNTPYGTVRSEWEKKDGGMLFRISIPPNSNAIVKLPAKREGRITADGKPLNNQDLSFEKERVVMYLGSGDYEFSTFK
For the molecule B2, the “Peak75 (PAR %)” value in assay [1] is listed as 2.417%. Further, in assay [2], the “Peak57 (PAR %)” value was 2.271%. For the same molecule, the “ratio PP/QS-21” value in assay [3] is 0.18. Further, the “QS-17 (PAR %)” value in assay [4] is reported as 5.211%.

B3: 1022 (protein)
chain: MRKSRSLGLGLVKYILIVVALVGCIQTSPTMDESAINHQAQTIYLRGGFNGWSTATAFDRTEQAGIYVAKTKITMGNHGFKLAPADWSFAWVVSAHENQLVELNKSYRLNTAGGEEDSLFIETRGLYQFTLDITQANQPKLLVKLLSADSAKTPPPHYGEMTSLEFNRFNGEKVEAVFSAKATNNGLREYVHSTTQSLRDPVPSYSRYQEDIAHPRVRSGNIAFDALFALAVDEMKLNSVEQIKDGNYNNGQAIDCSCFETGEKWNYVWTRDLSYAAHLSLAQFDAQRVENSLLFKVSNLRASAPISPFLAGNAPYTQIIQDTGSGGSWPVSTDRMTWAFGATALLANLAEPQRSQFARKAFTALVNTIENDRLVAFDSHLGLYLGEQSFLDWREQSYASWIVDDLSSMSTAISLSTNAGHYQALVLAADLAGQLGDVPAAKKYKGWASALKNAINQHLWLEEKGLYSSLTSGHYHKVALEKFDWLGQSLAIVTGIASDEQARAILSSYPHGPMGAAVIFPQQPNIPVYHNRAIWPFVTAYGLNAAVKGKNVAVTQAALDTLTRAAALNLSNMENLEWLSSEPILLDKTHPQLSGPVINSKRQLWSVAAYLNLVSNTIFGAQPSQQGIEFRPFIPKSFKDQWFKHSQVINLINYQWRGKQFDLQLKFAPSNKKFGAYVVNRVKVNGLAHSGVLVEQALKQHNLIEIELVLDNTVDNNINLVDSEPLAFDPLVYAPLEPKLSVVAKANDYVIQIEDKGNANLTSAAIEYEIYRDGNLLTRVPAGAGVSQWLDKGQAQQAHCYAVAARFVKSQNQSHLSEVVCMGERMQIPVADQRIQSNKPKKILGEQLIFSQWGEADDTLQVHFSIDQPGKYAIQFNYHNPANAINLGISNGVKWLEVVNSSNQQSVKQAAVQFPHTRVDKTQFGDNLSTPVEIELAAGDYKLHLHDFYNMSYLQSNKTYTAAGGMKGISNKFDIYAVTFVLLPLK
modifications: Catenovulum agarivorans
As to B3, in assay [1], the “Peak75 (PAR %)” value is 2.368%. In addition, in assay [2], the “Peak57 (PAR %)” value came to 2.882%. In addition, the “ratio PP/QS-21” value in assay [3] is 0.15. In assay [4], the “QS-17 (PAR %)” value stood at 5.190%.

B4: 995 (protein)
chain: MILLGALSLASSTFAQTWIWYPGDYEIWLGNQMNNRRTERGAFFPPFWKTDSHYVVVEFSKVLNLSEPEEVFIAAEGTYNVKLDGKLQFGMPETLLLPAGKHSLNIKVWNQATPPTIYVKGKTVNSDSSWRVTYEDKEWIDESGKASDTSATIYMDAGCWNFDGATQRPSQFSLMREPQQPVAKTEQPEGGILYDFGKETFGFITLKNLSGKGKIDLYYGESPEEAKDKAYCETLDKLLLEPGQITDLAIRSTSPLHHSDNEYTLENSKAFRYVYITHEPEVQIGEVSMQYEYLPEEYRGNFRCNDEELNCIWEVGAYTMHLTTREFFIDGIKRDRWVWSGDAIQSYLMNYYLFFDSESVKRTIWLLRGKDPVTSHSNTIMDYTFYWFLSVYDYYMYSGDRHFVNQLYPRMQTMMDYVLGRTNKNGMVEGMSGDWVFVDWADGYLDKKGELSFEQVLFCRSLETMALCADLVGDKDGQQKYEKLASALKAKLEPTFWNNQKQAFVHNCVDGRQSDAVTRYANMFSVFFDYLNADKQQAIKQSVLLNDEILKITTPYMRFYELEALCALGEQETVMKEMKAYWGGMLKAGATSFWEKYNPEESGTQHLAMYGRPYGKSLCHAWGASPIYLLGKYYLGVKPTKEGYKEFAVSPVLGGLKWMEGTVPTPNGDIHVYMDNKTIKVKATEGKGYLTIQSRRQPKANMGTVEKVSEGVWRLWIDSPEERIVTYRL
modifications: Bacteroides thetaiotaomicron
As to B4, in assay [1], the “Peak75 (PAR %)” value is 2.545%. Also, in assay [2], the “Peak57 (PAR %)” value is on record as 3.002%. Also, in assay [3], the “ratio PP/QS-21” value came out at 0.17. Moreover, the “QS-17 (PAR %)” value in assay [4] worked out at 5.223%.

B5: 1078 (protein, listed as Flavobacterium johnsoniae)
chain: MFQKKHLFFILLLASIVSAQEVHKKETNFQPTLESSKPWVYWYWMKSAYSKPGITADLEAMKQAGIAGAYLMTIKGPANPPLIDPPVLQLTPEFWDMIHWAFKEADRLGLKLAFHGADGFAVAGGPWITPEMSMQKIVWSTTEILGGKKVTSKLPVPAHYKDYYKNIATFAIPIKEYEITSQMQLPKVTTSNNTDASFLADPKKDENFKFADAGWIQYEFAQPFTCKSIVIETKGRDFQAQRLIVEVSDDGVNFRFHERMIAPRHGWQDMDFPNTHTITPVTAKYFRFVCDPKGTEPGAEDLDFAKWKQNLKVSKITLSNQSLINNYEGKSGAIWRLTPQTTEKEIPNSDAFKKSEIINISNFVDADGNLNWKAPKGKWKILRMGHTSTGHENATGGAGKGLEVDKFNPELIRFQLDHWFGEAVRSAGPELTSKVLEILHFDSWECGSQNWSSVFQTEFKKRRGYDLVEYLPVMAGIPVESADFSEKVLYDIRKTIADLVADNFYGTIAQIAKEYNVKLSAENVAPVVTSDALLHYKYVDYPSGEFWLKSPTHDKPFDMVDAISGGHIYGKDIIQAESFTALRMDWDEHPGNLKTTADRNYALGINRLFYHVFVHNPWTDRKPGMTLDDIGTFFQRDQTWWKPGKAWFDYCQRVQFQLQKGKPIIDLAVFSGEDFPSRSFVPDRLVPFIPNVFGKERLESEKIRLENEGQPTAKMPKEVTYSKNITDLSQWINPLNGYQYDSFNADVLINRAKVINGKISFEGGIEYGALFFPGSHKMAPNKMLSLASAEKILQLLKDGATIFVDEKPNLQPGVQSEADQKKWQNVIDEIWNNTNSATWKIGKGTVIKLPYLGNDFASIGISQDVYFTNLNRVDSETLAWAHRKSDTEDIYFISNQKAEKRTFDASFRILGKVPQWYNPVTDKTSALDNWKIENGRTIVSITLDANESGFVMFKEETKEILAKGRSSEFEKVQTLDENWKLQFDTEFKGPKEVVKINKLFDWSTSENDQIKYYSGTVVYKKEFIWKGKDSSKTWLDLGEISNIAEIKINGKDCGALWTFPFKTDISKALQKGKNTIEIKVTNTWANRLIGDQKLPKEERLTWTTAPFRLEGEPLLKAGLLGPVIIVKEK
Consider B5, for which, in assay [1], the “Peak75 (PAR %)” value was determined as 2.153%. The “Peak57 (PAR %)” value in assay [2] is 2.788%. In addition, the “ratio PP/QS-21” value in assay [3] amounted to 0.16. Besides, in assay [4], the “QS-17 (PAR %)” value came to 5.218%.
